Test results taken from patent US20250270319A1 (Alector, published 2025).

Tests used:
[1] = target: human CD33 on primary human dendritic cells (human, UniProt P20138 18-364); assay: cell-based or functional assay
[2] = target: T1, recombinant human CD33 protein (Sino Biologicals) (human, UniProt P20138 18-259); assay: ELISA, plate coated with recombinant CD33
T1 construct: Bought protein; also called recombinant CD33

[3] = target: T2, recombinant cynomolgus CD33 protein (NovoProtein) (cynomolgus); assay: ELISA, plate coated with recombinant CD33
T2 construct: Bought protein; also called cyno CD33
T2 sequence (chain, as listed by the source limits assumed): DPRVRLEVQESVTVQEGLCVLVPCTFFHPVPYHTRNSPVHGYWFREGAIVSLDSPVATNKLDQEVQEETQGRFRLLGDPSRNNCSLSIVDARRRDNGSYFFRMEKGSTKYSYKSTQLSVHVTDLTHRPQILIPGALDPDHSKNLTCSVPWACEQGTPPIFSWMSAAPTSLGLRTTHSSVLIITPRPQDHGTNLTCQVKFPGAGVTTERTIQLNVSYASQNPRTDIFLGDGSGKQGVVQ

T1 sequence (P20138 18-259 limits assumed): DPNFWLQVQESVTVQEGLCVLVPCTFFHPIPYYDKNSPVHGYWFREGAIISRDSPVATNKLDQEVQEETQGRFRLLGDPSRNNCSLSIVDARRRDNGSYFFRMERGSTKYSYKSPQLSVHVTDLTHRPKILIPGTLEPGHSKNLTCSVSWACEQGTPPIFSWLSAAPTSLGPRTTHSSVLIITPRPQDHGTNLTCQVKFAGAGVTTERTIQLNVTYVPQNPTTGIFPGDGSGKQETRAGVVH
Chain of human CD33 on primary human dendritic cells (P20138 18-364): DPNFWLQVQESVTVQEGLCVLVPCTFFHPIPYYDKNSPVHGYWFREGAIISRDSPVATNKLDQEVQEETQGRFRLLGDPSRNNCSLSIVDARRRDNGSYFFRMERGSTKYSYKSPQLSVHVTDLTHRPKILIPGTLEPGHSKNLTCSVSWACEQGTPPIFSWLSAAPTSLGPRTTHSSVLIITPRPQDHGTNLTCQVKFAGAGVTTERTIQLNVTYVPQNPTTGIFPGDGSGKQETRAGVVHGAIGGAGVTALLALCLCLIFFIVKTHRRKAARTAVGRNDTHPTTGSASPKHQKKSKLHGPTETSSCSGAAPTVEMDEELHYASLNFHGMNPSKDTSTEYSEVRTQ

Binder | Fold increase in potency compared to 6C7H5 [1] [fold] | Receptor downregulation, (EC50) (pM) [1] [pM] | EC50 [2] [nM] | EC50 [3] [nM] | Relative maximal binding (cyno/human) [3] | Relative potency (human/cyno) [3]
anti-CD33 antibody 6C7H37 (antibody, V domains shown, VH/VL only) VH: EVQLVESGGGLVQPGGSLRLSCAASGFTFSEYAMLWVRQAPGKGLEWVGEIRLKSNNYVTNYAASVKGRFTISRDDSKNSVYLQMNSLKTEDTGVYYCTRAGYYVPFTYWGQGTLVTVSS VL: QLMLTQSPSASASLGASVKLTCTLSSQHSTYTIEWYQQQPGKGPRYLMELKKEGSHSTGDGIPDRFSGSSSGAERYLTISSLQSEDEADYYCGVGHTIKEQFVYVFGGGTKLTVL | 0.7 | 59.3 | 0.26 | 5.62 | 0.45 | 0.05
anti-CD33 antibody 6C7H38 (antibody, V domains shown, VH/VL only) VH: EVQLVESGGGLVQPGGSLRLSCAASGFTFSEYAMLWVRQAPGKGLEWVGEIRLKSNNYVTNYAASVKGRFTISRDDSKNSVYLQMNSLKTEDTGVYYCTRAGYYVPFTYWGQGTLVTVSS VL: QPMLTQSPSASASLGASVKLTCTLSSQHSTYTIEWYQQQPGKGPRYLMELKKEGSHSTGDGIPDRFSGSSSGAERYLTISSLQSEDEADYYCGVGLTIKEQFVYVFGGGTKLTVL | 1.6 | 27 | 0.21 | 4.87 | 0.36 | 0.04
anti-CD33 antibody 6C7H48 (antibody, V domains shown, VH/VL only) VH: EVQLVESGGGLVQPGGSLRLSCAGSGFTFSNYEMNWVRQAPGKGLEWVAEIRLKSNNYVTNYAASVKGRFTISRDDSKNSVYLQMNSLKTEDTGVYYCTRAGYYVPFAYWGQGTLVTVSS VL: QPMLTQSPSASASLGASVKLTCTLSSQHSTYTIEWYQQQPGKGPRYLMELKKEGSHSTGDGIPDRFSGSSSGAERYLTISSLQSEDEADYYCGVGLTIKEQFVYVFGGGTKLTVL | 0.8 | 56.3 | 0.17 | 1.19 | 0.53 | 0.14
anti-CD33 antibody 6C7H52 (antibody, V domains shown, VH/VL only) VH: EVQLVESGGGLVQPGGSLRLSCAASGFTFSEYAMLWVRQAPGKGLEWVGEIRLKSNNYVTNYAASVKGRFTISRDDSKNSVYLQMNSLKTEDTGVYYCTRAGYYVPFAYWGQGTLVTVSS VL: QLMLTQSPSASASLGASVKLTCTLSSQHSTYTIEWYQQQPGKGPRYLMELKKEGSHSTGDGIPDRFSGSSSGAERYLTISSLQSEDEADYYCGVGHTIKEQFVYVFGGGTKLTVL | 0.9 | 47.7 | 0.23 | 1.7 | 0.47 | 0.14
anti-CD33 antibody 6C7H47 (antibody, V domains shown, VH/VL only) VH: EVQLVESGGGLVQPGGSLRLSCAGSGFTFSNYEMNWVRQAPGKGLEWVAEIRLKSNNYVTNYAASVKGRFTISRDDSKNSVYLQMNSLKTEDTGVYYCTRAGYYVPFAYWGQGTLVTVSS VL: QLMLTQSPSASASLGASVKLTCTLSSQHSTYTIEWYQQQPGKGPRYLMELKKEGSHSTGDGIPDRFSGSSSGAERYLTISSLQSEDEADYYCGVGHTIKEQFVYEFGGGTKLTVL | 0.7 | 59 | 0.22 | 0.42 | 0.43 | 0.52
anti-CD33 antibody 6C7H44 (antibody, V domains shown, VH/VL only) VH: EVQLVESGGGLVQPGGSLRLSCAASGFTFSEYDMLWVRQAPGKGLEWVGEIRLKSNNYVTNYAASVKGRFTISRDDSKNSVYLQMNSLKTEDTGVYYCTRAGYYVPFAYWGQGTLVTVSS VL: QPMLTQSPSASASLGASVKLTCTLSSQHSTYTIEWYQQQPGKGPRYLMELKKEGSHSTGDGIPDRFSGSSSGAERYLTISSLQSEDEADYYCGVGLTIKEQFVYVFGGGTKLTVL | 0.9 | 45.7 | 0.18 | – | 0.09 | –
anti-CD33 antibody 6C7H51 (antibody, V domains shown, VH/VL only) VH: EVQLVESGGGLVQPGGSLRLSCAASGFTFSEYAMLWVRQAPGKGLEWVGEIRLKSNNYVTNYAASVKGRFTISRDDSKNSVYLQMNSLKTEDTGVYYCTRAGYYVPFAYWGQGTLVTVSS VL: QPVLTQSPSASASLGASVKLTCTLSSQHSTYTIEWYQQQPEKGPRYLMELKKEGSHSTGDGIPDRFSGSSSGAERYLTISSLQSEDEADYYCGVGVTIKEQFVYVFGGGTKLTVL | 1 | 42.4 | 0.19 | – | 0.08 | –
anti-CD33 antibody 6C7H42 (antibody, V domains shown, VH/VL only) VH: EVQLVESGGGLVQPGGSLRLSCAASGFTFSEYDMLWVRQAPGKGLEWVGEIRLKSNNYVTNYAASVKGRFTISRDDTKNSVYLQMNSLKTEDTGVYYCTRAGYYVPFAYWGQGTLVTVSS VL: QPMLTQSPSASASLGASVKLTCTLSSQHSTYTIEWYQQQPGKGPRYLMELKKEGSHSTGDGIPDRFSGSSSGAERYLTISSLQSEDEADYYCGVGLTIKEQFVYVFGGGTKLTVL | 1.1 | 39.4 | 0.2 | – | 0.08 | –
anti-CD33 antibody 6C7H46 (antibody, V domains shown, VH/VL only) VH: EVQLVESGGGLVQPGGSLRLSCAASGFTFSEYAMLWVRQAPGKGLEWVGEIRLKSNNYVTNYAASVKGRFTISRDDSKNSVYLQMNSLKTEDTGVYYCTRAGYYVPFAYWGQGTLVTVSS VL: QPMLTQSPSASASLGASVKLTCTLSSQHSTYTIEWYQQQPGKGPRYLMELKKEGSHSTGDGIPDRFSGSSSGAERYLTISSLQSEDEADYYCGVGLTIKEQFVYVFGGGTKLTVL | 0.7 | 61.7 | 0.19 | 16.8 | 0.23 | 0.01
anti-CD33 antibody 6C7H50 (antibody, V domains shown, VH/VL only) VH: EVQLVESGGGLVQPGGSLRLSCAASGFTFSEYDMLWVRQAPGKGLEWVGEIRLKSNNYVTNYAASVKGRFTISRDDSKNSVYLQMNSLKTEDTGVYYCTRAGYYVPFAYWGQGTLVTVSS VL: QLMLTQSPSASASLGASVKLTCTLSSQHSTYTIEWYQQQPGKGPRYLMELKKEGSHSTGDGIPDRFSGSSSGAERYLTISSLQSEDEADYYCGVGHTIKEQFVYVFGGGTKLTVL | 0.7 | 57.8 | 0.22 | – | 0.21 | –
anti-CD33 antibody 6C7H43 (antibody, V domains shown, VH/VL only) VH: EVQLVESGGGLVQPGGSLRLSCAASGFTFSEYDMLWVRQAPGKGLEWVGEIRLKSNNYVTNYAASVKGRFTISRDDSKNSVYLQMNSLKTEDTGVYYCTRAGYYVPFAYWGQGTLVTVSS VL: QLMLTQSPSASASLGASVKLTCTLSSQHSTYTIEWYQQQPGKGPRYLMELKKEGSHSTGDGIPDRFSGSSSGAERYLTISSLQSEDEADYYCGVGHTIKEQFVYEFGGGTKLTVL | 0.9 | 49.8 | 0.17 | – | 0.11 | –
anti-CD33 antibody 6C7H45 (antibody, V domains shown, VH/VL only) VH: EVQLVESGGGLVQPGGSLRLSCAASGFTFSEYAMLWVRQAPGKGLEWVGEIRLKSNNYVTNYAASVKGRFTISRDDSKNSVYLQMNSLKTEDTGVYYCTRAGYYVPFAYWGQGTLVTVSS VL: QLMLTQSPSASASLGASVKLTCTLSSQHSTYTIEWYQQQPGKGPRYLMELKKEGSHSTGDGIPDRFSGSSSGAERYLTISSLQSEDEADYYCGVGHTIKEQFVYEFGGGTKLTVL | 1 | 44.5 | 0.15 | – | 0.31 | –
